Source: US20250327097A1, “ORGANISMS PRODUCING LESS CROTONIC ACID” (Global Bioenergies, priority 2021, published 2025)

system: 3-methylcrotonic acid; assay type: biochemical, Yersinia frederiksenii; set-up: key: “+” representing a low increase in activity; “++++” representing a high increase in activity

Molecule | Activity relative to WT
I283T-N285P-N287T-Q290E-S322T-N388M-K394R-C430A-L432F-L434W-S436N-i444aR-dG462 (protein) MFLKSLREQINLLKRQGDLRIINRPVDSYLEAAAIIRRSTETKAPVPLMTNIKGYPGCSIVGGLAALSSNPEYPLSRVAMSLGLSTTASAQSIVQYLIDGLKKTPYLPVEIDSNSAPCKQNILRGEDASLAHFPIPQVHQHDGNRYVNTWGVFIVESPDGQWCNWSIQRVQYLNDRQMIALVFPSQHISDIWEEWVKIGKPMPYALVQGCEPIVPYIAGLPLLERNVNEAEYIGALYGKGIEVVKCETHDLRVPASSEVVIEGYFAITREGVEGPFGEFAGYTPPETSLEPILSITAISWQDDPIWPVVAEGKPVDEYHTCTGIGDAAAIQNVLLTANLPVSFVWVPLYSACHLMIVSINRHWRQTHPDLTSEQLTKKVGDVIHQTRMSIKLPRIVVLDDDVDPADTESLLWALATRIHPERKRYFYESAIFPWLNCYSEEERHNRKGKRVIIDALLPENHGAISSFDYAYPDDIKQRVLMHWETDFSHD | ++++
I283T-N285P-N287T-Q290E-S322T-N388M-K394R-C430A-L432F-L434W-S436N-i444aG-dG462 (protein) MFLKSLREQINLLKRQGDLRIINRPVDSYLEAAAIIRRSTETKAPVPLMTNIKGYPGCSIVGGLAALSSNPEYPLSRVAMSLGLSTTASAQSIVQYLIDGLKKTPYLPVEIDSNSAPCKQNILRGEDASLAHFPIPQVHQHDGNRYVNTWGVFIVESPDGQWCNWSIQRVQYLNDRQMIALVFPSQHISDIWEEWVKIGKPMPYALVQGCEPIVPYIAGLPLLERNVNEAEYIGALYGKGIEVVKCETHDLRVPASSEVVIEGYFAITREGVEGPFGEFAGYTPPETSLEPILSITAISWQDDPIWPVVAEGKPVDEYHTCTGIGDAAAIQNVLLTANLPVSFVWVPLYSACHLMIVSINRHWRQTHPDLTSEQLTKKVGDVIHQTRMSIKLPRIVVLDDDVDPADTESLLWALATRIHPERKRYFYESAIFPWLNCYSEEERHNRKGKRVIIDALLPENHGAISSFDYAYPDDIKQRVLMHWETDFSHD | ++++
I283T-N285P-N287T-Q290E-S322T-N388M-K394R-C430A-L432F-L434W-S436N-i444aK-dG462 (protein) MFLKSLREQINLLKRQGDLRIINRPVDSYLEAAAIIRRSTETKAPVPLMTNIKGYPGCSIVGGLAALSSNPEYPLSRVAMSLGLSTTASAQSIVQYLIDGLKKTPYLPVEIDSNSAPCKQNILRGEDASLAHFPIPQVHQHDGNRYVNTWGVFIVESPDGQWCNWSIQRVQYLNDRQMIALVFPSQHISDIWEEWVKIGKPMPYALVQGCEPIVPYIAGLPLLERNVNEAEYIGALYGKGIEVVKCETHDLRVPASSEVVIEGYFAITREGVEGPFGEFAGYTPPETSLEPILSITAISWQDDPIWPVVAEGKPVDEYHTCTGIGDAAAIQNVLLTANLPVSFVWVPLYSACHLMIVSINRHWRQTHPDLTSEQLTKKVGDVIHQTRMSIKLPRIVVLDDDVDPADTESLLWALATRIHPERKRYFYESAIFPWLNCYSEEERHNRKGKRVIIDALLPENHGAISSFDYAYPDDIKQRVLMHWETDFSHD | ++++
I283T-N285P-N287T-Q290E-S322T-N388M-K394R-C430A-L432F-L434W-S436N-i444aN-dG462 (protein) MFLKSLREQINLLKRQGDLRIINRPVDSYLEAAAIIRRSTETKAPVPLMTNIKGYPGCSIVGGLAALSSNPEYPLSRVAMSLGLSTTASAQSIVQYLIDGLKKTPYLPVEIDSNSAPCKQNILRGEDASLAHFPIPQVHQHDGNRYVNTWGVFIVESPDGQWCNWSIQRVQYLNDRQMIALVFPSQHISDIWEEWVKIGKPMPYALVQGCEPIVPYIAGLPLLERNVNEAEYIGALYGKGIEVVKCETHDLRVPASSEVVIEGYFAITREGVEGPFGEFAGYTPPETSLEPILSITAISWQDDPIWPVVAEGKPVDEYHTCTGIGDAAAIQNVLLTANLPVSFVWVPLYSACHLMIVSINRHWRQTHPDLTSEQLTKKVGDVIHQTRMSIKLPRIVVLDDDVDPADTESLLWALATRIHPERKRYFYESAIFPWLNCYSEEERHNRKGKRVIIDALLPENHGAISSFDYAYPDDIKQRVLMHWETDFSHD | ++++
I283T-N285P-N287T-Q290E-S322T-N388M-K394R-C430A-L432F-L434W-S436N-i444aE-dG462 (protein) MFLKSLREQINLLKRQGDLRIINRPVDSYLEAAAIIRRSTETKAPVPLMTNIKGYPGCSIVGGLAALSSNPEYPLSRVAMSLGLSTTASAQSIVQYLIDGLKKTPYLPVEIDSNSAPCKQNILRGEDASLAHFPIPQVHQHDGNRYVNTWGVFIVESPDGQWCNWSIQRVQYLNDRQMIALVFPSQHISDIWEEWVKIGKPMPYALVQGCEPIVPYIAGLPLLERNVNEAEYIGALYGKGIEVVKCETHDLRVPASSEVVIEGYFAITREGVEGPFGEFAGYTPPETSLEPILSITAISWQDDPIWPVVAEGKPVDEYHTCTGIGDAAAIQNVLLTANLPVSFVWVPLYSACHLMIVSINRHWRQTHPDLTSEQLTKKVGDVIHQTRMSIKLPRIVVLDDDVDPADTESLLWALATRIHPERKRYFYESAIFPWLNCYSEEERHNRKGKRVIIDALLPENHGAISSFDYAYPDDIKQRVLMHWETDFSHD | ++++
I283T-N285P-N287T-Q290E-S322T-N388M-K394R-C430A-L432F-L434W-S436N-i444aT-dG462 (protein) MFLKSLREQINLLKRQGDLRIINRPVDSYLEAAAIIRRSTETKAPVPLMTNIKGYPGCSIVGGLAALSSNPEYPLSRVAMSLGLSTTASAQSIVQYLIDGLKKTPYLPVEIDSNSAPCKQNILRGEDASLAHFPIPQVHQHDGNRYVNTWGVFIVESPDGQWCNWSIQRVQYLNDRQMIALVFPSQHISDIWEEWVKIGKPMPYALVQGCEPIVPYIAGLPLLERNVNEAEYIGALYGKGIEVVKCETHDLRVPASSEVVIEGYFAITREGVEGPFGEFAGYTPPETSLEPILSITAISWQDDPIWPVVAEGKPVDEYHTCTGIGDAAAIQNVLLTANLPVSFVWVPLYSACHLMIVSINRHWRQTHPDLTSEQLTKKVGDVIHQTRMSIKLPRIVVLDDDVDPADTESLLWALATRIHPERKRYFYESAIFPWLNCYSEEERHNRKGKRVIIDALLPENHGAISSFDYAYPDDIKQRVLMHWETDFSHD | ++++
I283T-N285P-N287T-Q290E-S322T-N388M-K394R-C430A-L432F-L434W-S436N-i444aL-dG462 (protein) MFLKSLREQINLLKRQGDLRIINRPVDSYLEAAAIIRRSTETKAPVPLMTNIKGYPGCSIVGGLAALSSNPEYPLSRVAMSLGLSTTASAQSIVQYLIDGLKKTPYLPVEIDSNSAPCKQNILRGEDASLAHFPIPQVHQHDGNRYVNTWGVFIVESPDGQWCNWSIQRVQYLNDRQMIALVFPSQHISDIWEEWVKIGKPMPYALVQGCEPIVPYIAGLPLLERNVNEAEYIGALYGKGIEVVKCETHDLRVPASSEVVIEGYFAITREGVEGPFGEFAGYTPPETSLEPILSITAISWQDDPIWPVVAEGKPVDEYHTCTGIGDAAAIQNVLLTANLPVSFVWVPLYSACHLMIVSINRHWRQTHPDLTSEQLTKKVGDVIHQTRMSIKLPRIVVLDDDVDPADTESLLWALATRIHPERKRYFYESAIFPWLNCYSEEERHNRKGKRVIIDALLPENHGAISSFDYAYPDDIKQRVLMHWETDFSHD | ++++
